T1: CD39 mutant 3 (R118A, S119A, Q120K, Q122H, E123A) (human, UniProt P49961 1-510)
T1 construct: Transfected in HEK293T cells
T1 chain: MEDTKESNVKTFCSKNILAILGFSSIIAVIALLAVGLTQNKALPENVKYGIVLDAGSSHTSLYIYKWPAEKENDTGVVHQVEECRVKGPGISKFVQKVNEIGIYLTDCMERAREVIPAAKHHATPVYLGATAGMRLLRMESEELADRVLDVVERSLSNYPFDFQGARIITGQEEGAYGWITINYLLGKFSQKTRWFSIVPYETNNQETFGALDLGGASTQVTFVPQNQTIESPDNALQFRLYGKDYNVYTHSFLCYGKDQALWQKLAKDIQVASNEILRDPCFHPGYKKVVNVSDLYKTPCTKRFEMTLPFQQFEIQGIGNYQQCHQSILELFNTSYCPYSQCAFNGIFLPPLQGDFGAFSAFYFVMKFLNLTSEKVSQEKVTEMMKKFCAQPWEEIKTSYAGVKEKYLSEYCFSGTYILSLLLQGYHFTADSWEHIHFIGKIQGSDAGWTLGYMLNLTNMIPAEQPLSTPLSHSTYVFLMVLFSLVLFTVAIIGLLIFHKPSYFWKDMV

T2: Recombinant human CD39-L3 (NTPDase3, ENTPD3) (human, UniProt O75355 44-485, limits assumed)
T2 construct: Coated in ELISA
T2 sequence: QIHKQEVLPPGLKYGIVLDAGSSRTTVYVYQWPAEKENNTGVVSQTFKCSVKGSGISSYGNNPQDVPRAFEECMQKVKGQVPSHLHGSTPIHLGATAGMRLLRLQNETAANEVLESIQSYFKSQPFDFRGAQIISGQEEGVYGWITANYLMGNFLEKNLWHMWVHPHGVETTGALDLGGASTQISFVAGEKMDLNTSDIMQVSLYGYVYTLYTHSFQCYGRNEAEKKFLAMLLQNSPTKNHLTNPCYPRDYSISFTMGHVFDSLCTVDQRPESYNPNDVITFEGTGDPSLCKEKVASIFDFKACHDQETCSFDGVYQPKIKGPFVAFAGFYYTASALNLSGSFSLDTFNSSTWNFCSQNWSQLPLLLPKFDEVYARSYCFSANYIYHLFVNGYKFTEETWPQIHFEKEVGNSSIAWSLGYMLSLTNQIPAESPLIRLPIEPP

T3: Recombinant human CD39-L4 (NTPDase5, ENTPD5) (human, UniProt O75356 25-428)
T3 construct: Coated in ELISA
T3 sequence: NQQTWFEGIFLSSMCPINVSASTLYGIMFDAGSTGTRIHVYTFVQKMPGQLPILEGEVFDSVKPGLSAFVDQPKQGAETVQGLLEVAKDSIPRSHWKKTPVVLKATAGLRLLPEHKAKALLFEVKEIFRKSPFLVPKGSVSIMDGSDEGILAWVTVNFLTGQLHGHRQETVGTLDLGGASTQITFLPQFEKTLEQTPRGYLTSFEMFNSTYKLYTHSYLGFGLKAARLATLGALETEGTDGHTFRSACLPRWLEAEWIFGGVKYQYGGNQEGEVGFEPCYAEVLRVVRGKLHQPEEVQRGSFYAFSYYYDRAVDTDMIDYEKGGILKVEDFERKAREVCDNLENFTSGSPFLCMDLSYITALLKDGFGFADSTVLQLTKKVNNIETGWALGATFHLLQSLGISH

B1: I-392: anti-CD39 antibody, VH SEQ ID NO: 8 and VL SEQ ID NO: 9, chimeric human IgG1 with N297Q mutation (antibody, V domains shown)
VH: QIQLVQSGPEVKKPRETVKISCKASGYTFTHYGMNWVKQAPGKGLKWMGWINTYTGEPTYADDFKGRFAFSLEASASTAYLQINNLKNEDTATYFCARRRYEGNYVFYYFDYWGQGTTLTVSS
VL: DIQMTQSPASLSASVGETVTITCRASENIYSYFSWYQQKQGKSPQLLVYTAKTLAEGVPSRFSGSGSGTQFSLKINSLQPEDFGSYYCQHHYVTPYTFGGGTKLEIK
B2: Antibody I-391, Fc silent recombinant chimeric human IgG1 with heavy chain N297Q mutation (antibody, V domains shown)
VH: QIQLVQSGPELKKPGETVKISCKASGYTFRNYGMNWVKQAPGKGLKWMGWINTYTGEPTYADDFKGRFAFSLATSASTAYLQISNLKNEDTATYFCARKAYYGSNYYFDYWGQGTTLTVSS
VL: DIVMTQSHKFMSTSVGDRVSITCKASQDVSTAVAWYQQKPGQSPKLLIYSASYRYTGVPDRFTGSGSGTDFTFTISTVQAEDLAVYYCQQHYTTPPYTFGGGTKLEIKR

Legend:
[1] = Stability in reference formulation, thermal shift stability assay (aggregation temperature); assay type: physicochemical; settings: in words
Method: All antibodies were tested for stability in the following reference formulation at a concentration of approximatively 7 mg/mL: pH 6.0; histidine buffer (10 mM); sucrose (200 mM); NaCl (50 mM); Polysorbate 80 (PS80) (0.2 g/L). […] So for this study the concentration is set at 0.2 g/L.
The stability of the formulations was monitored in two storage conditions (at +5° C.±3° C. and at +40±3° C. For each study, 3 times point were performed: TO, T15D (15 days) and T1M (1 month). A freeze thaw (F/T) and a thermal shift stability assay (TSSA) were conducted for the format comparison. To perform F/T cycles, the samples were frozen at least 2 hours at −20° C. and thawed at least 1 hour at room temperature, the F/T cycle is repeated three times and samples are tested 24h after the last Freeze/Thaw cycle. At each time point, the following tests were performed: • Particulate Matter (MFI) • Visual Inspection (Appearance) • Impurities (SE-HPLC) • Turbidity (400 nm) • Protein Concentration (280 nm) (performed with Nanodrop, Thermo Fisher Scientific Inc.)
Aggregation temperature is correlated with the intrinsic stability. The higher the TAgg, the higher the stability of the protein. […]

[2] = target: T1, CD39 mutant 3 (R118A, S119A, Q120K, …); assay: flow cytometry, HEK293T cells transfected with mutant 3
[3] = target: T2, Recombinant human CD39-L3 (NTPDase3, …); assay: ELISA on coated RechuCD39-L3, OD 450 nm [top panel CHS2-I-391]
Method: (§1) Wells were washed in TBS Tween 20, and further saturated 2H at RT in TBS Blocking buffer. Dose range concentration of primary antibody was incubated in TBS blocking buffer for 2h at RT. Wells were washed in TBS Tween 20. […] Optical density was measured on Enspire at OD=450.

[4] = target: T3, Recombinant human CD39-L4 (NTPDase5, …); assay: ELISA on coated RechuCD39-L4, OD 450 nm [top panel CHS2-I-391]
Method: as §1

| Molecule | stability (aggregation) [1] | binding result [2] | binding result [3] | binding result [4] |
| --- | --- | --- | --- | --- |
| B1 | relatively low inherent stability |  |  |  |
| B2 |  | binds | no binding (tested: 50 ug/ml) | no binding (tested: 50 ug/ml) |
